Measured values from paper PMC5145889, “Differential CCR7 Targeting in Dendritic Cells by Three Naturally Occurring CC-Chemokines” (Frontiers in Immunology, 2016).

T1: human CCR7, wild type, untagged (human, UniProt P32248 25-378)
T1 sequence (looked up): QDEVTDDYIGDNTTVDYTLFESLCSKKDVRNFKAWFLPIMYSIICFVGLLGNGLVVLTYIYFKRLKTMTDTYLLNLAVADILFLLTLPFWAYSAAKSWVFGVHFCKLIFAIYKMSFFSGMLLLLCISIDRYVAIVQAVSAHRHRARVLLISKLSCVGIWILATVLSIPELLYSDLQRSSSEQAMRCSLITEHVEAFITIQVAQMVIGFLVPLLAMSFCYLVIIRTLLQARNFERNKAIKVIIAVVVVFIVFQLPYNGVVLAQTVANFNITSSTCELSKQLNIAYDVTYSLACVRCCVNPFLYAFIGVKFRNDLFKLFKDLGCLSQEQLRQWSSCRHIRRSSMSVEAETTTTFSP

T2: CCR7 E193A (human, UniProt P32248 25-378, E193A)
T2 sequence (looked up): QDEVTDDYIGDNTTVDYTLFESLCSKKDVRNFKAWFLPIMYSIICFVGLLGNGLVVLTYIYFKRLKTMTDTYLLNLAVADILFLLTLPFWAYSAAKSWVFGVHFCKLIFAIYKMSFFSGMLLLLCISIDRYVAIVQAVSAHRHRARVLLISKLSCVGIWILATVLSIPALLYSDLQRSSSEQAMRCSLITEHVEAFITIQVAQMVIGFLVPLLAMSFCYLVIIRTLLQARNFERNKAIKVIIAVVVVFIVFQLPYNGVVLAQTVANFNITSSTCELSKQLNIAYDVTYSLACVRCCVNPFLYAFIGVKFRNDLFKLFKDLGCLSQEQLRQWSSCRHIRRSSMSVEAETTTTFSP

T3: CCR7 K137A (human, UniProt P32248 25-378, K137A)
T3 sequence (looked up): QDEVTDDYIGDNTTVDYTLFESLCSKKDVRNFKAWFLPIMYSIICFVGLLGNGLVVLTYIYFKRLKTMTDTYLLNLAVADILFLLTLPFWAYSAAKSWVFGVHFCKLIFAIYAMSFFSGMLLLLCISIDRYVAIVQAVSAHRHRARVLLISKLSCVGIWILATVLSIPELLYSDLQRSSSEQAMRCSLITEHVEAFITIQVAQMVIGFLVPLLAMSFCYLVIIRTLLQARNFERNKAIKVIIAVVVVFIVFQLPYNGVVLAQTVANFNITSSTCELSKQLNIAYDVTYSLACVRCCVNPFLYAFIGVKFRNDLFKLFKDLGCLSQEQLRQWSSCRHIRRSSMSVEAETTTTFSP

T4: CCR7 F133A (human, UniProt P32248 25-378, F133A)
T4 sequence (looked up): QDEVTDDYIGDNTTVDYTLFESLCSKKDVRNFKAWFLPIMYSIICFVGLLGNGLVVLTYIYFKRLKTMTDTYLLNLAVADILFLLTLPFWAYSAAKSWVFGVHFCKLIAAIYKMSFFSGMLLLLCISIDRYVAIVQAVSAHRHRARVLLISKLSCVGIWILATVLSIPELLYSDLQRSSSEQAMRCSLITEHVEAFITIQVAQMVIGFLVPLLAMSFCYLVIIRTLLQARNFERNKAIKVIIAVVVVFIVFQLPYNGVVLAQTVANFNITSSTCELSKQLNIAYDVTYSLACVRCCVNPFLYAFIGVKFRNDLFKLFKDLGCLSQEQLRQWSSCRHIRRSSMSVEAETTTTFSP

T5: CCR7 Y312A (human, UniProt P32248 25-378, Y312A)
T5 sequence (looked up): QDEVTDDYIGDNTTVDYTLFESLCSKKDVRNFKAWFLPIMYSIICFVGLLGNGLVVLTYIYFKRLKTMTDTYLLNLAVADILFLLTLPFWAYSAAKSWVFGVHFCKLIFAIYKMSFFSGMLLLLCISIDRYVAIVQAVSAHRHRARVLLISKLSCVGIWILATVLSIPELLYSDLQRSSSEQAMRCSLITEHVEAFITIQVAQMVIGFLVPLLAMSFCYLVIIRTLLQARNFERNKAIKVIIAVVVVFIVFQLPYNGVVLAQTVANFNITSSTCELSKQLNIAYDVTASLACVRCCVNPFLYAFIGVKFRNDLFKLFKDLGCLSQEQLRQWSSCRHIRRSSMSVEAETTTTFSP

T6: CCR7 fused with the ProLink (PK) 1-tag (human, UniProt P32248 25-378)
T6 sequence (looked up): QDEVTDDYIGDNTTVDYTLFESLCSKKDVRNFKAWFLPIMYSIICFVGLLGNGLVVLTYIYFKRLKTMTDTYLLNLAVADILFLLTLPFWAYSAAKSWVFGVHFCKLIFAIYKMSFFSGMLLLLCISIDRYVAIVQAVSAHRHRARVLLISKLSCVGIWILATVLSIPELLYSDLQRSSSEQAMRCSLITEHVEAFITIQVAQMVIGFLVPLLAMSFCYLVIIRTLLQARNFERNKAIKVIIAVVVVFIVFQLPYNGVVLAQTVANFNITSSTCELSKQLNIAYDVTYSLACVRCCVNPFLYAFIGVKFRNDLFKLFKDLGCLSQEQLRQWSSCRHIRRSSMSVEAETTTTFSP


Columns and labels:
[1] = target: human CCR7, wild type, untagged (human) (UniProt P32248)
[2] = target: CCR7 fused with the ProLink (PK) 1-tag (human) (UniProt P32248)
[3] = target: human CCR7, wild type, untagged (human) (UniProt P32248); remark: listed apart in the source
[4] = target: human CCR7, wild type, untagged (human) (UniProt P32248); remark: listed apart in the source
CCR7 Y312A (human) = CCR7 Y312A (human) (UniProt P32248)
[5] = target: T1, human CCR7, wild type, untagged; experiment: cell-based or functional assay
CCR7 E193A = target: T2, CCR7 E193A; experiment: cell-based or functional assay
CCR7 K137A = target: T3, CCR7 K137A; experiment: cell-based or functional assay
CCR7 F133A = target: T4, CCR7 F133A; experiment: cell-based or functional assay
[6] = target: T1, human CCR7, wild type, untagged; experiment: cell-based or functional assay; remark: listed apart in the source
CCR7 Y312A = target: T5, CCR7 Y312A; experiment: cell-based or functional assay
[7] = target: T6, CCR7 fused with the ProLink (PK) 1-tag; experiment: cell-based or functional assay

Sequence of human chemokine CCL19 (Q99731 22-98): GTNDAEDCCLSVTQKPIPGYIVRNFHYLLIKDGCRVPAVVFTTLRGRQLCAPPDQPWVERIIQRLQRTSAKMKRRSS

Row | Molecule | EC50 of β-arrestin 2-dependent CCR7 internalization (U2OS cells, 3 h) [1] [nM] | EC50 of β-arrestin 2 recruitment to CCR7 (PathHunter, U2OS cells) [2] [nM] | EC50 of PI-turnover (Gαi signalling read through Gqi4myr) in HEK293 cells transfected with CCR7 [3] [nM] | EC50 of PI-turnover in HEK293 cells (mutagenesis series, wild type) [4] [nM] | EC50 of PI-turnover in HEK293 cells (CCR7 Y312A (human)) [nM] | percentage activation of CCR7 (G-protein signaling) relative to CCL19 [5] | percentage activation of CCR7 (G-protein signaling) relative to CCL19 (CCR7 E193A) | percentage activation of CCR7 (G-protein signaling) relative to CCL19 (CCR7 K137A) | percentage activation of CCR7 (G-protein signaling) relative to CCL19 (CCR7 F133A) | EC50 of PI-turnover (Gαi signalling read through Gqi4myr) in HEK293 cells transfected with CCR7 [6] [nM] | EC50 of PI-turnover in HEK293 cells (mutagenesis series, wild type) [6] [nM] | EC50 of β-arrestin 2-dependent CCR7 internalization (U2OS cells, 3 h) [6] [nM] | EC50 of PI-turnover in HEK293 cells (CCR7 Y312A) [nM] | EC50 of β-arrestin 2 recruitment to CCR7 (PathHunter, U2OS cells) [7] [nM]
1 | human chemokine CCL19 (from UniProt Q99731 22-98) (ligand) | 4.1 | 15 | 5 | 5.4 | 7.8 |  |  |  |  |  |  |  |  | 
2 | tailless-CCL21 (ligand, human) SDGGAQDCCLKYSQRKIPAKVVRSYRKQEPSLGCSIPAILFLPRKRSQAELCADPKELWVQQLMQHLDKTPSPQKPAQG |  |  |  |  |  | 42.7 % relative to CCL19 | 17.5 % relative to CCL19 | 16.7 % relative to CCL19 | 27.1 % relative to CCL19 | ~142 |  |  |  | 
3 | human chemokine CCL21 (full-length CCL21) (ligand, UniProt O00585 24-134, looked up) SDGGAQDCCLKYSQRKIPAKVVRSYRKQEPSLGCSIPAILFLPRKRSQAELCADPKELWVQQLMQHLDKTPSPQKPAQGCRKDRGASKTGKKGKGSKGCKRTERSQTPKGP |  |  |  |  |  | 57 % relative to CCL19 | 19.3 % relative to CCL19 | 16 % relative to CCL19 | 28.7 % relative to CCL19 | ~50 | ~156 | ~152 | ~77 | ~263
